Experimental data published in US20070036750A1.
pIC50, pKi: −log10 of the molar value.

How the values were obtained:
[1] = target: human CCR2 (full-length, Genbank Accession No. NM-000648) on membranes of Ba/F3-hCCR2 cells (human) (UniProt P41597); assay: competition with 30 pM radioiodinated human MCP1, SPA, Ba/F3-hCCR2 cell membranes
[2] = target: human CCR2 (full-length, Genbank Accession No. NM-000648) on membranes of Ba/F3-hCCR2 cells (human) (UniProt P41597); assay: competition with radioiodinated human MCP1, SPA, membranes of cells containing CCR2

pIC50 [1]	pKi [1]	fold less potent than unlabeled rhMCP1 [2] [fold]	Substance
9.74	10.07	–	Recombinant human MCP1 (rhMCP1) (R & D Systems) (from UniProt P13500 24-99) (ligand)
9.20	9.54	5 to 12	hMCP1-mIg (NH2-human MCP1-Mouse Ig Heavy chain γ1 (hinge-CH2-CH3)-COOH) (Fc fusion)
